In article PMC11496107:

B1: LXRα-VP16 (wild-type liver X receptor-α fused to VP16) [human] / Gal4-SRC1 (aa 570-780) [not stated] (parent)
chain 1: MSLWLGAPVPDIPPDSAVELWKPGAQDASSQAQGGSSCILREEARMPHSAGGTAGVGLEAAEPTALLTRAEPPSEPTEIRPQKRKKGPAPKMLGNELCSVCGDKASGFHYNVLSCEGCKGFFRRSVIKGAHYICHSGGHCPMDTYMRRKCQECRLRKCRQAGMREECVLSEEQIRLKKLKRQEEEQAHATSLPPRASSPPQILPQLSPEQLGMIEKLVAAQQQCNRRSFSDRLRVTPWPMAPDPHSREARQQRFAHFTELAIVSVQEIVDFAKQLPGFLQLSREDQIALLKTSAIEVMLLETSRRYNPGSESITFLKDFSYNREDFAKAGLQVEFINPIFEFSRAMNELQLNDAEFALLIAISIFSADRPNVQDQLQVERLQHTYVEALHAYVSIHHPHDRLMFPRMLMKLVSLRTLSSVHSEQVFALRLQDKKLPPLLSEIWDVHE
chain 2: PSRLNIQPAKAESKDNKEIASILNEMIQSDNSSSDGKPLDSGLLHNNDRLSDGDSKYSQTSHKLVQLLTTTAEQQLRHADIDTSCKDVLSCTGTSNSASANSSGGSCPSSHSSLTERHKILHRLLQEGSPSDITTLSVEPDKKDSASTSVSVTGQVQGNSSIKLELDASKKKESKDHQLLRYLLDKDEKDLRSTPNLSLDDVKVKVEKKEQ

Variants of: B1
Assay: mammalian two-hybrid assay (luciferase reporter, HEK293 cells)
Conditions: with Gal4-SRC1 (aa 570-780); GOF sub-panel; highest T0901317 (T09) dose plotted (rightmost point); 20 h; parent: 100; read off a plot

Row | Variant | percent of parent
1 | chain 1 MSLWLGAPVPDIPPDSAVELWKPGAQDASSQAQGGSSCILREEARMPHSAGGTAGVGLEAAEPTALLTRAEPPSEPTEIRPQKRKKGPAPKMLGNELCSVCGDKASGFHYNVLSCEGCKGFFRRSVIKGAHYICHSGGHCPMDTYMRRKCQECRLRKCRQAGMREECVLSEEQIRLKKLKRQEEEQAHATSLPPRASSPPQILPQLSPEQLGMIEKLVAAQQQCNRRSFSDRLRVTPWPMAPDPHSREARQQRFAHFTELAIVSVQEIVDFAKQLPGFLQLSREDQIALLKTSAIEVMLLETSRRYNPGSESITFLKDFSYNREDFAKAGLQVEFINPIFEFSRAVNELQLNDAEFALLIAISIFSADRPNVQDQLQVERLQHTYVEALHAYVSIHHPHDRLMFPRMLMKLVSLRTLSSVHSEQVFALRLQDKKLPPLLSEIWDVHE [chain 1 M346V] | 100 % WT

Same assay, conditions: with Gal4-SRC1 (aa 570-780); GOF sub-panel; untreated condition (leftmost point, plotted an order of magnitude below the lowest T09 dose); 20 h; parent: 100; read off a plot

Row | Variant | percent of parent
2 | chain 1 MSLWLGAPVPDIPPDSAVELWKPGAQDASSQAQGGSSCILREEARMPHSAGGTAGVGLEAAEPTALLTRAEPPSEPTEIRPQKRKKGPAPKMLGNELCSVCGDKASGFHYNVLSCEGCKGFFRRSVIKGAHYICHSGGHCPMDTYMRRKCQECRLRKCRQAGMREECVLSEEQIRLKKLKRQEEEQAHATSLPPRASSPPQILPQLSPEQLGMIEKLVAAQQQCNRRSFSDRLRVTPWPMAPDPHSREARQQRFAHFTELAIVSVQEIVDFAKQLPGFLQLSREDQIALLKTSAIEVMLLETSRRYNPGSESITFLKDFSYNREDFAKAGLQVEFINPIFEFSRAVNELQLNDAEFALLIAISIFSADRPNVQDQLQVERLQHTYVEALHAYVSIHHPHDRLMFPRMLMKLVSLRTLSSVHSEQVFALRLQDKKLPPLLSEIWDVHE [chain 1 M346V] | 18 % WT
